The record followed here is paper PMC5482197.

The Kd is a measure of binding affinity in units of concentration.

Assay [1] addresses recombinant soluble integrin αvβ3 (UniProt P06756). Kind of assay: SPR; soluble αvβ3 immobilized on a CM5 sensor chip by amine coupling; WT and mutant FGF2 two-fold serially diluted from 2 μM in HBS-P buffer (0.01 M Hepes, pH 7.4, 0.15 M NaCl, 0.0005% surfactant P20) with 1 mM Mn2+; 50 μl/min, 1.8 min injection, 3 min dissociation; WT: Kd is the average of Kd values of individual curves; K125E: global fit with a conformation-change model, Kd1 used as Kd.

In assay [2] the target is integrin α5β1 on K562 erythroleukaemia cells, P08648;P05556. Kind of assay: cell adhesion assay (K562 cells). The conditions noted are these: K562 cells (αvβ3-, α5β1+), panel title K562_FGF2_RPMI, read off a plot.

Chain of UniProt P06756 (P06756 31-1048, chain 1 of 2): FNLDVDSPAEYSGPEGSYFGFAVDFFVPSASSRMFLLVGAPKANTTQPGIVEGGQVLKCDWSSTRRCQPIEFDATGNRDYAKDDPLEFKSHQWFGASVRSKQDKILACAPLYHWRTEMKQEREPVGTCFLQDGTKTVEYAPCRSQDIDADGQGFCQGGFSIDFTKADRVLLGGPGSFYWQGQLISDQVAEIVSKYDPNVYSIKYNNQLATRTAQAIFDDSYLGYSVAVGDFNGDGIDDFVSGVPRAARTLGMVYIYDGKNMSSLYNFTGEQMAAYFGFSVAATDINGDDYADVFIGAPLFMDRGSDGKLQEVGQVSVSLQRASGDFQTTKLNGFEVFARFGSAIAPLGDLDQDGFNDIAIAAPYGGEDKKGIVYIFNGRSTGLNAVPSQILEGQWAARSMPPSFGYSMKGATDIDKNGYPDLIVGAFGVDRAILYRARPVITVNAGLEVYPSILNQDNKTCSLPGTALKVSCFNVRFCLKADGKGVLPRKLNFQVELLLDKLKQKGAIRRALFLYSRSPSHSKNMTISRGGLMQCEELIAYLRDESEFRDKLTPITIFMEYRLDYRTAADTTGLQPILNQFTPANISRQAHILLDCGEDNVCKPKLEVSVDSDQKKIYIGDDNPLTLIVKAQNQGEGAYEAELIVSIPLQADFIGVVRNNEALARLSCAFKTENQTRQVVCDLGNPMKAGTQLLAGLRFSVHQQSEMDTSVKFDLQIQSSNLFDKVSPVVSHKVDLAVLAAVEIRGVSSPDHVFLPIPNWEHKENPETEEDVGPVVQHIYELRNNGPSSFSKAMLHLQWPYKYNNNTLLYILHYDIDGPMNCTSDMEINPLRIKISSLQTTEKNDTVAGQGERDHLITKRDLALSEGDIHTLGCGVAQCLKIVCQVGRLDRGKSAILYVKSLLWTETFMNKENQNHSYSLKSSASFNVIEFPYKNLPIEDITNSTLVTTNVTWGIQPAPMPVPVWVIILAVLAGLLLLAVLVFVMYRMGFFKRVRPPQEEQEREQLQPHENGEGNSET
Chain of UniProt P06756 (P05106 27-718, chain 2 of 2, further chain): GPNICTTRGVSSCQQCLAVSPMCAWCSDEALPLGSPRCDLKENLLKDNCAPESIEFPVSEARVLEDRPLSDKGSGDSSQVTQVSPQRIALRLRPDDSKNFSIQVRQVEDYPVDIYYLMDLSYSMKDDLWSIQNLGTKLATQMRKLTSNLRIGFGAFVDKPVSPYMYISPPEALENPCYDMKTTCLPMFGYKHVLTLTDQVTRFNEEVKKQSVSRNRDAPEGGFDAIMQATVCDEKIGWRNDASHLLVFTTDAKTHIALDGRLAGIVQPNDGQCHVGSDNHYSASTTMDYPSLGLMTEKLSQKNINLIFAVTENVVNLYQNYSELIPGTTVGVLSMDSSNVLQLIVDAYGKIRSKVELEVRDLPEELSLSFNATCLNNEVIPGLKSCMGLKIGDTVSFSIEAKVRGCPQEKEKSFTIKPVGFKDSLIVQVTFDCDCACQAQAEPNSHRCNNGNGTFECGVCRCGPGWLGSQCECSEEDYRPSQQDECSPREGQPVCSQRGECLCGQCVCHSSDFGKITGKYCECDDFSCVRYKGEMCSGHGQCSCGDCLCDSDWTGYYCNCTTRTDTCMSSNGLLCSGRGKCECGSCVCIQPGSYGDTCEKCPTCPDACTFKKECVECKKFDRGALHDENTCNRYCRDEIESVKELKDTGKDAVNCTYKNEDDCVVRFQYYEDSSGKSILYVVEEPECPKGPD
Chain of wild-type human FGF2 (fibroblast growth factor 2) (P09038 143-288): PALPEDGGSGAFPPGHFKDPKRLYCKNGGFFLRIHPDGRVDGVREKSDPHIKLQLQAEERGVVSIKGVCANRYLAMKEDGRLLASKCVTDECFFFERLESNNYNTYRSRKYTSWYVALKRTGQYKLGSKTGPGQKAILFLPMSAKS

FGF2 K125E mutant (ligand): in assay [1], the Kd1 (A + B <=> AB, first step of the conformation-change model; used by the paper as the binding Kd) stood at 1100 nM.

“wild-type human FGF2 (fibroblast growth factor 2) (ligand)”: the Kd in assay [1] came out at 77.5 nM.

“wild-type human FGF2 (fibroblast growth factor 2) K39E”: the response in assay [2] (FGF2 2.5 µg/ml, parent: est. 63) came to 27 % adhesion; in assay [2] (FGF2 5 µg/ml, parent: est. 84) it was 68 % adhesion; in assay [2] (FGF2 20 µg/ml, parent: est. 85), 89 % adhesion.
